Data from PMC4959528, “SpoVG Is a Conserved RNA-Binding Protein That Regulates Listeria monocytogenes Lysozyme Resistance, Virulence, and Swarming Motility”.

Tests used:
[1] = biological target: T1, SpoVG-6-His (Listeria monocytogenes 10403S) (UniProt Q8YAD5); experiment: EMSA; settings: 2x buffer: 40 mM Tris-HCl pH 8.0, 2 mM MgCl2, 20% glycerol, 300 mM NaCl, 5 mM DTT, plus 5 ug yeast tRNA, 1 ug BSA, 100 ng poly(dI-dC) …
T1 sequence: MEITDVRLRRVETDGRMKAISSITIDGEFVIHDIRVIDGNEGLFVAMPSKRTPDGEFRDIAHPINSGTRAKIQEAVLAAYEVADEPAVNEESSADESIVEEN

[2] = biological target: T1, SpoVG-6-His (Listeria monocytogenes 10403S); experiment: competition; settings: EMSA, 2x buffer: 40 mM Tris-HCl pH 8.0, 2 mM MgCl2, 20% glycerol, 300 mM NaCl, 5 mM DTT; plus 5 ug yeast tRNA, 1 ug BSA, 100 ng poly(dI-dC) …
[3] = biological target: T2, SpoVG-6-His (Listeria monocytogenes 10403S, UniProt Q8YAD5 1-102); experiment: EMSA; EMSA, 2x buffer: 40 mM Tris-HCl pH 8.0, 2 mM MgCl2, 20% glycerol, 300 mM NaCl, 5 mM DTT; plus 5 ug yeast tRNA, 1 ug BSA, 100 ng poly(dI-dC); 25-30 ul, room temperature 30 min, 5% native PAGE; settings: protein: recombinant; tags: C-terminal 6xHis; label: 32P
T2 sequence: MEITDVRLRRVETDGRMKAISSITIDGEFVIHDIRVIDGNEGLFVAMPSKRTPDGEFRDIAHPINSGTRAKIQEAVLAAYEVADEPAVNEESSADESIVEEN

[4] = biological target: T2, SpoVG-6-His; experiment: EMSA; no significant binding to dsDNA; EMSA, 2x buffer: 40 mM Tris-HCl pH 8.0, 2 mM MgCl2, 20% glycerol, 300 mM NaCl, 5 mM DTT; plus 5 ug yeast tRNA, 1 ug BSA, 100 ng poly(dI-dC); 25-30 ul, room temperature 30 min, 5% native PAGE; settings: protein: recombinant; tags: C-terminal 6xHis; label: 32P; blunt

Molecule: GGGAAAAGAAACCCUAAUGUAUUCGAUAUAGUUCCUGAUAUUUUUGAACCGAACAAUUUUUUAUACCUAGGGAGCUUGGAGUUCCGGCGCGGCGCACAUGCCUUCACACGAGGAAGUGCAAACCGUUAGACAGAGCACCCACCUGCUUUAAUUGAGAGCGGGUUCAAAGGAAGGGAAUCCUAAACGGUACGAUUGGGGUUUCUUUUUUG [6S RNA]
- binding [1]: no binding

Molecule: GGGCAGUGGAAUUAAAGGCAUCUAAGCAAAUCAUGAUGAACGAGAGAACCGUUUGAAGAUCAUCCGAAUGACGUAUAUGUUCUACCUUGAUCUGUUCAGCCGCAAUGCUUUUGCGAGUGACA [Rli109]
- Kd [1]: 129 nM
- binding [2]: binds

Molecule: GGGUGGAGAGCUUUCAUUUUUCCCAAGAGAAAGCAAAUAAUGUUAGAGCAAUAAUUCUAGUAUCCGAAUUAGUCUUAUCCCUUGGCUCGCUUUAAUAUUAUUUCUCCCUAAUACUCCCUUAACCGCAUCCCCCUGGUGCGGUUAUUUUUUUG [Rli32]
- Kd [1]: 273 nM

Molecule: GGUAUCCCAUAGAGAUUGUCAGGGGAAAUAAGCUAAUUGAAAAUAAAUUACUUCCCCCAUAGAAAUAUUCUUAAUUGCUUAUUUCAAAUAAACACUCCUUUAAGAUAGUUGUAGCACAGAAUUUCCCAGAUUCUGUGCUAUAAUUA [Rli31 mutant A]
- binding [1]: binds

Molecule: GGUAUCCCAUAGAGAUUGUCAUUUGAAAUAAGCUAAUUGAAAAUAAAUUACUUCCCCCAUAGAAAUAUUCUUAAUUGCUUAUUUCAAAUAAACACUCCUUUAAGAUAGUUGUAGCACAGAAUUUCCCAGAUUCUGUGCUAUAAUUA [Rli31]
- Kd [1]: 273 nM

Molecule: GGUAUCCCAUAGAGAUUGUCAUUUGAAAUAAGCUAAUUGAAAAUAAAUUACUUUUUCCAUAGAAAUAUUCUUAAUUGCUUAUUUCAAAUAAACACUCCUUUAAGAUAGUUGUAGCACAGAAUUUCCCAGAUUCUGUGCUAUAAUUA [Rli31 mutant E]
- binding signal [1]: binds more weakly

Molecule: GGUGAGAUGACAUGUUUCUUUUGAAUGCGCGAACUAGUAUAGCUAAAUUUUUGUAUAUUGUCCGUGCAAUUUUUUCCGUUAUUGCAGUUACAUUGGCGAAGUCUGCCCAAAAAACUGUAUAACUAGAAAAAAUGAGAGAAGCAUGGAGUCACGCAAUCGAUUUGUAUAGUGCUAAAUUAGUAUUAUACUUAUAAUUGGCGUCGGGCGCUUGUCUGACGCUUUUUUGUUGUCUGAAAAAA [RliI]
- binding [1]: binds more weakly

Molecule: GGUUGUCGUGCUAGACGGGGAGGUAGCGGCGCCCUGUAACCCGCAAUCCGCUCUAGCGGGGUUGAAUUCCUCAUUUGAGGCAUCGUAAUUGUUUGGUCUGCCCUUGACAAGUGGUGUUGAAGGUUGGGUCUUGCGCAAUGGGAACCUGUGAACCAUGUCAGGUCCGGAAGGAAGCAGCAUUAAGCAGUGCUUCUCAUGUGCCGCGAGGUCGCCUGGCCCGAGCUAACUAUCAGGGUAACGCAGAUGAUUGCAUGUCGAUGUGAGGUGCGCGACACUAA [SRP RNA]
- binding [1]: no binding

Molecule: Rli31
- Kd [1]: 273 nM

Molecule: Rli32
- Kd [1]: 273 nM

Molecule: Rli109
- Kd [1]: 129 nM

Molecule: GTCGCGCAACAAAGTAATAATGCAGATGGACAGACTAATGAAAGACCAG (ssDNA) [pgdA ORF]
- binding result [3]: binds

B1: cap41 dsDNA (dsDNA)
DNA 1: GAGTATAATTATTTTTAATTTACATATAAATAAAAAGGCGAAAATAATGCGGTTTAAAAGTAATTAAT
DNA 2: ATTAATTACTTTTAAACCGCATTATTTTCGCCTTTTTATTTATATGTAAATTAAAAATAATTATACTC
- binding result [4]: no binding
